# US20190153106A1 (TRUSTEES OF BOSTON UNIVERSITY, published 2019)
# Several values for one entry are separate records, joined by “and”; a condition that tells them apart may be missing. Identical values can stand only once. Like-named read-outs stand apart in the source and are kept apart here.
# T1: rat DEspR (rat)
# T1 chain: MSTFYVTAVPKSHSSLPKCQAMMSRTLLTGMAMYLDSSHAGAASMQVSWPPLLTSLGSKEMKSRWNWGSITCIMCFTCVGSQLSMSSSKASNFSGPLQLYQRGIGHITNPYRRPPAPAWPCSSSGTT
# T2: antigenic peptide (AP) EMKSRWNWGS (human/monkey/rat DEspR epitope)
# T2 construct: also called 6G8G7 antigenic peptide; partial peptide
# T2 peptide: EMKSRWNWGS
# B1: human DEspR (dual endothelin-1/VEGF signal peptide receptor) (receptor)
# chain: MTMFKGSNEMKSRWNWGSITCIICFTCVGSQLSMSSSKASNFSGPLQLYQRELEIFIVLTDVPNYRLIKENSHLHTTIVDQGRTV
# modifications: glycosylated (~17 kDa band, PNGase-sensitive)
# notes: On intact Panc1 cells / Panc1 CSCs in the FACS assays and on HUVECs in the angiogenesis assays; In pulldowns and Western blots it came from membrane proteins of U87 CSCs and hDEspR-Cos1 permanent transfectants; also called hDEspR; DEAR
# B2: 6g8^IgG4 humab1 (6g8g7-derived IgG4 humanized monoclonal antibody 1) (antibody)
# heavy: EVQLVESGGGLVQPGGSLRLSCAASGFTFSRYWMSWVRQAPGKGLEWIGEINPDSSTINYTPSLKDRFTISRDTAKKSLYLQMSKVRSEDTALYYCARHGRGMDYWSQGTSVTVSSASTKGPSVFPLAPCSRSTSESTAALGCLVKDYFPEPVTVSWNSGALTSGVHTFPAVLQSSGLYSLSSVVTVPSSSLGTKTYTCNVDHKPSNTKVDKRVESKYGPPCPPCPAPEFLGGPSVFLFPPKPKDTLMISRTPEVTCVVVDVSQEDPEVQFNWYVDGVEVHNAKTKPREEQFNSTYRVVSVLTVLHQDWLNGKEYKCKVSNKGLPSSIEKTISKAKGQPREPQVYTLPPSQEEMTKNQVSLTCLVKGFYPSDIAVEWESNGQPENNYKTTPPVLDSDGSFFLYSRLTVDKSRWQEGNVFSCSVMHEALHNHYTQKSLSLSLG
# light: DIVLTQSPDILSVSLGERATVNCKASQNVDSNVAWYQQKPGHPPKLLIYSASYRYSRVPDRISGSGSGTDFTLTISNLQAEDVAVYYCQQYHSYPLLAFGAGTKLELKRTVAAPSVFIFPPSDEQLKSGTASVVCLLNNFYPREAKVQWKVDNALQSGNSQESVTEQDSKDSTYSLSSTLTLSKADYEKHKVYACEVTHQGLSSPVTKSFNRGEC
# notes: Hinge-stabilized (S228P) human IgG4 / human kappa, transiently expressed in HEK293; AF568-labelled in the FACS assays; also called 6G8IgG4 humanized monoclonal antibody 1 (mAb 1); lead candidate humab
# B3: 6g8^IgG1 humab1 (IgG1 6G8G7 humanized monoclonal antibody) (antibody)
# heavy: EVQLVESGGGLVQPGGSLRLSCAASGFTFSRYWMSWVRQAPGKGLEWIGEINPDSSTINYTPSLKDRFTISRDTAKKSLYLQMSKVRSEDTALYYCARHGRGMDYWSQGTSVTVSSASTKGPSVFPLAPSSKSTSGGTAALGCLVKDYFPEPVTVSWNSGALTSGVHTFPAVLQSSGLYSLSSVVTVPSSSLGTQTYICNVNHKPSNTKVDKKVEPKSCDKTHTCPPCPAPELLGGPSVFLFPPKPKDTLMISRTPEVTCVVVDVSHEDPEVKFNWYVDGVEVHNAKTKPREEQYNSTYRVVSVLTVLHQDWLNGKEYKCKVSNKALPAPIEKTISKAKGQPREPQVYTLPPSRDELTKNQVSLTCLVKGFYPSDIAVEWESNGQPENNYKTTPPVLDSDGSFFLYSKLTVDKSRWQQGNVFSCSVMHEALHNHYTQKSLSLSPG
# light: B2 light
# notes: Human IgG1 / human kappa
# B4: 7C5B2 mouse anti-human DEspR monoclonal antibody (antibody, V domains shown)
# VH: QVQLKESGPGLVAPSQSLSITCTVSGFSLKSYAVSWVRQPPGKGLEWLGVIWGDGSTDYHSALISRLSISKDNSKSQFFLRLNSLQTDDTATYYCARGTGTGFAYWGQGTLVTVSA
# VL: DVVMTQTPLSLPVSLGDQASISCRSSQSLVHSNGNTYLHWYLQKPGQSPKLLIYKVSNRFSGVPDRFSGSGSGTDFTLKISRVEAEDLGIYFCSQCTHIPWTFGGGTNLEIK
# notes: Mouse hybridoma antibody raised against the 9-aa N-terminal peptide of human DEspR; IgG2b was used as its isotype control; AF568-labelled in the FACS and internalization assays; also called 7C5-murine monoclonal antibody; HV2KV2
# B5: 6G8G7 murine anti-DEspR monoclonal antibody (antibody, V domains shown)
# VH: EVQLQESGGGLVQPGGSLKLSCAASGFDFSRYWMSWVRQAPGKGLEWIGEINPDSSTINYTPSLKDKFIISRDTAKKTLYLQMSKVRSEDTALYYCARHGRGMDYWSQGTSVTVSS
# VL: DIVLTQTNQIMSASVGDRVSVTCKASQNVDSNVAWYQQKPGHSPKALIYSASYRYSRVPDRITGSGSGTDFTLTITNVQSKDLADYFCQQYHSYPLLAFGAGTKLELKR
# notes: Mouse hybridoma antibody, detected with anti-mouse IgG2b; also called 6g8 mumab; 6g8-mumab
# How the values were obtained:
# galectin-1 = target: T3, galectin-1 (human, UniProt P09382 2-135); assay: Western blot of the DEspR complex
# T3 construct: also called gal1; recombinant galectin-1 protein
# rat DEspR = target: T1, rat DEspR; assay: cell-based or functional assay
# [1] = target: B1; assay: cell-based or functional assay
# [2] = target: T2, antigenic peptide (AP) EMKSRWNWGS; assay: ELISA on antigenic peptide EMKSRWNWGS
# Description: Next, the EC50 of binding to the antigenic peptide was determined by ELISA, as shown in FIGS. 35A-35B, comparing two IgG4 6g8g7 humanized antibody candidates (including humab1 comprising SEQ ID NOs: 63 and 65 and humab2 comprising SEQ ID NO: 65 with substitutions in SEQ ID NO: 26 at Kabat residues 83V and 85Y to give 83D and 85Y), and the IgG1 6G8G7humanized monoclonal antibody (comprising SEQ ID NOs: 61 and 65), and 6G8G7 murine monoclonal antibody (“6g8 mumab”).
# (§1) Neutrophils (50000/well) were incubated in the absence or presence of mAbs at 37° C. × 4 hrs and live cells counted by using Trypan blue. HUVEC-dependent angiogenesis (20,000 cells/well) was performed as described in the presence or absence of mAbs. Number of polygons and number of branch points were determined after 14 hrs of incubation at 37° C. ND, not done, indeterminate, value greater than upper limit of max dose used in these experiments.
# [3] = target: B1; assay: FACS, AF568-labelled mAb on intact DEspR+ human cells (Panc1), 4°C
# Description: Binding was determined by FACS analysis.
# as §1
# [4] = target: B1; assay: saturation binding by FACS, AF568-labelled mAb on DEspR+ Panc1 cells
# Description: (§2) Saturation binding curves of monoclonal antibody (mAb) binding to DEspR on Panc1 CSCs. […] Specific binding was determined by FACS analysis using 100,000 cells in 0.25 ml containing increasing concentrations of mAbs. Incubations were done at 4° C. for 20 min and immediately subjected to FACS analysis on a BDTM LSRII Flow cytometer. Each data point was performed in duplicate.
# Fully human VH5/VK1 has a slightly better Kd than VH3/VK2 fully human composite antibodies. […] (FIG. 16).
# [5] = target: B1; assay: FACS saturation binding of AF568-labelled mAb to Panc1 CSCs, 4 °C, 20 min
# Description: as §2
# [6] = target: B1; assay: cell-based or functional assay; remark: listed apart in the source
# [7] = target: T2, antigenic peptide (AP) EMKSRWNWGS; assay: ELISA on antigenic peptide EMKSRWNWGS
# [8] = target: B1; assay: FACS displacement of AF568-7C5B2 (10 µg/ml) from Panc1 CSCs; peptide at 100x molar excess
# Description: 50,000 cells were reacted with 10 µg/ml AF568-labelled 7C5B2 monoclonal antibody (mAb) at 4° C. for 20 min in the absence or presence of the different peptides at 100× molar excess. Samples were immediately subjected to FACS analysis for quantification of DEspR+ cells. Samples were run in duplicates. AngII, angiotensinII; ET1, endothelin-1 (DEspR ligand); sp17, VEGFsp17 (DEspR ligand); sp26, VEGFsp26 (DEspR ligand). Data presented as Mean±SD.
# T3 sequence (P09382 2-135 limits assumed): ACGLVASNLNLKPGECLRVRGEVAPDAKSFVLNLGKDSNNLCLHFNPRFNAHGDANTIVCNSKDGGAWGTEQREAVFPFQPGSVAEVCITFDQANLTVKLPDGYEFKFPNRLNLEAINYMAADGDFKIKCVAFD
"Human Angiogenesis assay (HUVECs): branch points, IC50 [1]","Human Angiogenesis assay (HUVECs): polygons, IC50 [1]",Bmax (A450) [2],EC50 [2],Bmax (% + cells) [3],EC50 [3],Binder,"Rat Neutrophil survival, IC50 (rat DEspR)",other results
–,–,–,–,–,–,B1,–,binding result (galectin-1): binds
4.3 µg/mL,2.6 µg/mL,2.62 A450,11.7 µg/mL,31.5 % + cells,~4.3 nM and 0.64 µg/mL,B2,1.16 µg/mL,–
10.4 µg/mL,9.1 µg/mL,3.09 A450,13.4 µg/mL,21.6 % + cells,1.3 µg/mL and 42.9 nM,B3,6.98 µg/mL,–
–,–,–,–,–,–,B4,–,Kd [4]: ~5.2 µg/mL; Kd [5]: 5.2 µg/mL
–,–,–,–,–,–,MNFLLSWVHWSLALLLY (ligand) [VEGFsp17 (VEGF signal peptide 17)],–,"stimulation of HUVEC angiogenesis, EC50 based on total tube length [6]: 1.98 nM"
> 30 µg/mL,> 30 µg/mL,6.36 A450,2.96 µg/mL,35.6 % + cells,5.39 µg/mL and 178 nM,B5,> 30 µg/mL,EC50 [7]: 4.96 µg/mL; Kd [4]: ~5.2 µg/mL; Kd [5]: 5.2 µg/mL
–,–,–,–,–,–,"CSCSSLMDKECVYFCHLDIIW (ligand, UniProt P05305 53-73, looked up, also called ET1; ET-1) [endothelin-1]",–,binding result [8]: binds
–,–,–,–,–,–,MNFLLSWVHWSLALLLYLHHAKWSQA (ligand) [VEGFsp26 (VEGF signal peptide 26)],–,"inhibition of HUVEC angiogenesis, IC50 based on total tube length [6]: 1.9 nM"
